# Results published in the supplement of paper PMC10201428.
# ± gives the standard deviation of the averaged measurements.
# B1: library; a variant is named by its letters at N, in order (parent)
# chain: AATGTTGTTGATGCAACCATAAAGTGATATTTAATAATTATTTATAATCAGCAACTTAACCACAAAACAACCATATATTGATATNTCACAAAACAACCATAANTTGATATTTTTGTGAATCGAGTATTTCAGCAAAACTACTGCAGTAAGAA
# Assays:
# [1] = variants of: B1; experiment: relative integration efficiency (T-LR orientation) vs wild-type transposon end (log2 (normalized fold change)); transposon end mutated: left end; higher = more efficient transposition; conditions: with VchCAST RNA-guided transposition machinery (E. coli BL21(DE3) host, lacZ target)
# Method in brief: (§1)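 Barcoded pools of 1549 left-end or 1849 right-end transposon variants were cloned into a pUC57 mini-transposon donor. Each pool was co-transformed with a T7-driven effector plasmid (CRISPR array, tniQ-cas8-cas7-cas6, tnsA-tnsB-tnsC) into E. coli BL21(DE3) and plated with 0.1 mM IPTG at 37°C for 18 h. Input plasmids and genomic integration junctions were PCR-amplified and Illumina-sequenced, with two biological output replicates and four wild-type barcodes as reference. Relative integration efficiency is output/input barcode abundance fold change, normalised to wild-type barcodes and log-transformed.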
# [2] = variants of: B1; experiment: relative integration efficiency (T-RL orientation) vs wild-type transposon end (log2 (normalized fold change)); transposon end mutated: left end; higher = more efficient transposition; conditions: with VchCAST RNA-guided transposition machinery (E. coli BL21(DE3) host, lacZ target)
# Method in brief: as §1
variant,measurement,setting,value
AATGTTGTTGATGCAACCATAAAGTGATATTTAATAATTATTTATAATCAGCAACTTAACCACAAAACAACCATATATTGATATCTCTGTTAACAACCATAAGTTGATATTTTTGTGAATCGAGTATTTCAGCAAAACTACTGCAGTAAGAA [CG A88T C89G A90T A91T],relative integration efficiency (log2),[1],-0.283 ± 0.86
same,relative integration efficiency (log2),[2],-0.432 ± 0.33
AATGTTGTTGATGCAACCATAAAGTGATATTTAATAATTATTTATAATCAGCAACTTAACCACAAAACAACCATATATTGATATCTCACCCCCCAACCATAAGTTGATATTTTTGTGAATCGAGTATTTCAGCAAAACTACTGCAGTAAGAA [CG A90C A91C A92C A93C],relative integration efficiency (log2),[1],-0.132 ± 0.77
same,relative integration efficiency (log2),[2],-0.283 ± 0.31
AATGTTGTTGATGCAACCATAAAGTGATATTTAATAATTATTTATAATCAGCAACTTAACCACAAAACAACCATATATTGATATCTCTCAAAACAACCATAAGTTGATATTTTTGTGAATCGAGTATTTCAGCAAAACTACTGCAGTAAGAA [CG A88T],relative integration efficiency (log2),[1],0.112 ± 0.73
same,relative integration efficiency (log2),[2],0.0226 ± 0.1
AATGTTGTTGATGCAACCATAAAGTGATATTTAATAATTATTTATAATCAGCAACTTAACCACAAAACAACCATATATTGATATCTCCCAAAACAACCATAAGTTGATATTTTTGTGAATCGAGTATTTCAGCAAAACTACTGCAGTAAGAA [CG A88C],relative integration efficiency (log2),[1],-0.0509 ± 0.39
same,relative integration efficiency (log2),[2],-0.148 ± 0.082
AATGTTGTTGATGCAACCATAAAGTGATATTTAATAATTATTTATAATCAGCAACTTAACCACAAAACAACCATATATTGATATCTCGCAAAACAACCATAAGTTGATATTTTTGTGAATCGAGTATTTCAGCAAAACTACTGCAGTAAGAA [CG A88G],relative integration efficiency (log2),[1],-0.182 ± 0.22
same,relative integration efficiency (log2),[2],-0.24 ± 0.098
AATGTTGTTGATGCAACCATAAAGTGATATTTAATAATTATTTATAATCAGCAACTTAACCACAAAACAACCATATATTGATATCTCACCCAACAACCATAAGTTGATATTTTTGTGAATCGAGTATTTCAGCAAAACTACTGCAGTAAGAA [CG A90C A91C],relative integration efficiency (log2),[1],-0.406 ± 0.87
same,relative integration efficiency (log2),[2],-0.15 ± 0.34
AATGTTGTTGATGCAACCATAAAGTGATATTTAATAATTATTTATAATCAGCAACTTAACCACAAAACAACCATATATTGATATCTCACTTAACAACCATAAGTTGATATTTTTGTGAATCGAGTATTTCAGCAAAACTACTGCAGTAAGAA [CG A90T A91T],relative integration efficiency (log2),[1],0.245 ± 0.23
same,relative integration efficiency (log2),[2],-0.308 ± 0.26
AATGTTGTTGATGCAACCATAAAGTGATATTTAATAATTATTTATAATCAGCAACTTAACCACAAAACAACCATATATTGATATCTCACTTTTCAACCATAAGTTGATATTTTTGTGAATCGAGTATTTCAGCAAAACTACTGCAGTAAGAA [CG A90T A91T A92T A93T],relative integration efficiency (log2),[1],-0.429 ± 0.24
same,relative integration efficiency (log2),[2],-0.557 ± 0.36
AATGTTGTTGATGCAACCATAAAGTGATATTTAATAATTATTTATAATCAGCAACTTAACCACAAAACAACCATATATTGATATCTCCACCAACAACCATAAGTTGATATTTTTGTGAATCGAGTATTTCAGCAAAACTACTGCAGTAAGAA [CG A88C C89A A90C A91C],relative integration efficiency (log2),[1],-0.0905 ± 0.58
same,relative integration efficiency (log2),[2],-0.404 ± 0.32
AATGTTGTTGATGCAACCATAAAGTGATATTTAATAATTATTTATAATCAGCAACTTAACCACAAAACAACCATATATTGATATCTCACATAACAACCATAAGTTGATATTTTTGTGAATCGAGTATTTCAGCAAAACTACTGCAGTAAGAA [CG A91T],relative integration efficiency (log2),[1],-0.0651 ± 0.68
same,relative integration efficiency (log2),[2],-0.101 ± 0.084
AATGTTGTTGATGCAACCATAAAGTGATATTTAATAATTATTTATAATCAGCAACTTAACCACAAAACAACCATATATTGATATCTCACAGAACAACCATAAGTTGATATTTTTGTGAATCGAGTATTTCAGCAAAACTACTGCAGTAAGAA [CG A91G],relative integration efficiency (log2),[1],0.0207 ± 0.21
same,relative integration efficiency (log2),[2],-0.155 ± 0.14
AATGTTGTTGATGCAACCATAAAGTGATATTTAATAATTATTTATAATCAGCAACTTAACCACAAAACAACCATATATTGATATCTCACACAACAACCATAAGTTGATATTTTTGTGAATCGAGTATTTCAGCAAAACTACTGCAGTAAGAA [CG A91C],relative integration efficiency (log2),[1],-0.299 ± 1.1
same,relative integration efficiency (log2),[2],-0.278 ± 0.17
AATGTTGTTGATGCAACCATAAAGTGATATTTAATAATTATTTATAATCAGCAACTTAACCACAAAACAACCATATATTGATATCTCCAAAAACAACCATAAGTTGATATTTTTGTGAATCGAGTATTTCAGCAAAACTACTGCAGTAAGAA [CG A88C C89A],relative integration efficiency (log2),[1],0.0423 ± 0.026
same,relative integration efficiency (log2),[2],0.0174 ± 0.062
AATGTTGTTGATGCAACCATAAAGTGATATTTAATAATTATTTATAATCAGCAACTTAACCACAAAACAACCATATATTGATATCTCACACCCAAACCATAAGTTGATATTTTTGTGAATCGAGTATTTCAGCAAAACTACTGCAGTAAGAA [CG A91C A92C A93C C94A],relative integration efficiency (log2),[1],-0.269 ± 0.36
same,relative integration efficiency (log2),[2],-0.581 ± 0.55
AATGTTGTTGATGCAACCATAAAGTGATATTTAATAATTATTTATAATCAGCAACTTAACCACAAAACAACCATATATTGATATCTCACTAAACAACCATAAGTTGATATTTTTGTGAATCGAGTATTTCAGCAAAACTACTGCAGTAAGAA [CG A90T],relative integration efficiency (log2),[1],-0.375 ± 0.31
same,relative integration efficiency (log2),[2],-0.404 ± 0.16
AATGTTGTTGATGCAACCATAAAGTGATATTTAATAATTATTTATAATCAGCAACTTAACCACAAAACAACCATATATTGATATCTCACCAAACAACCATAAGTTGATATTTTTGTGAATCGAGTATTTCAGCAAAACTACTGCAGTAAGAA [CG A90C],relative integration efficiency (log2),[1],-0.155 ± 0.19
same,relative integration efficiency (log2),[2],-0.278 ± 0.11
AATGTTGTTGATGCAACCATAAAGTGATATTTAATAATTATTTATAATCAGCAACTTAACCACAAAACAACCATATATTGATATCTCACGAAACAACCATAAGTTGATATTTTTGTGAATCGAGTATTTCAGCAAAACTACTGCAGTAAGAA [CG A90G],relative integration efficiency (log2),[1],-0.331 ± 0.48
same,relative integration efficiency (log2),[2],-0.339 ± 0.053
AATGTTGTTGATGCAACCATAAAGTGATATTTAATAATTATTTATAATCAGCAACTTAACCACAAAACAACCATATATTGATATCTCACACCACAACCATAAGTTGATATTTTTGTGAATCGAGTATTTCAGCAAAACTACTGCAGTAAGAA [CG A91C A92C],relative integration efficiency (log2),[1],0.242 ± 0.39
same,relative integration efficiency (log2),[2],-0.116 ± 0.2
AATGTTGTTGATGCAACCATAAAGTGATATTTAATAATTATTTATAATCAGCAACTTAACCACAAAACAACCATATATTGATATCTCTGAAAACAACCATAAGTTGATATTTTTGTGAATCGAGTATTTCAGCAAAACTACTGCAGTAAGAA [CG A88T C89G],relative integration efficiency (log2),[1],0.362 ± 0.31
same,relative integration efficiency (log2),[2],0.178 ± 0.048
